Laboratory results published in the supplement of paper PMC9112550, “Optimization of the antimicrobial peptide Bac7 by deep mutational scanning” (BMC Biology, 2022).

Test system: Escherichia coli TOP10
Assay: shrunken log2 fold change of peptide-encoding DNA abundance (4.5 h post-induction vs induction); higher = less antimicrobial activity (less host growth inhibition)
Details: time post-induction: 4.5 h; library: site-saturation at positions 5, 18, 19, 20
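Further: peptides expressed intracellularly from a pBAD plasmid library in pooled LB shake-flask culture, induced with 0.3% L-arabinose, DNA abundance read by NGS, three biological replicates, DESeq2 with apeglm shrinkage.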

RRIRSRPPRLPRPRPRPLPYPRP
shrunken log2 fold change: -0.25

RRIRHRPPRLPRPRPRPEPYPRP
shrunken log2 fold change: 0.0514

RRIRLRPPRLPRPRPRPCQGPRP
shrunken log2 fold change: 0.00157

RRIRWRPPRLPRPRPRPFQVPRP
shrunken log2 fold change: -0.19

RRIRMRPPRLPRPRPRPGNPPRP
shrunken log2 fold change: 0.639

RRIRHRPPRLPRPRPRPPENPRP
shrunken log2 fold change: 0.116

RRIRIRPPRLPRPRPRPEHTPRP
shrunken log2 fold change: -0.464

RRIRLRPPRLPRPRPRPQGDPRP
shrunken log2 fold change: -0.0165

RRIRGRPPRLPRPRPRPTDWPRP
shrunken log2 fold change: 0.8

RRIRWRPPRLPRPRPRPMLHPRP
shrunken log2 fold change: -0.17

RRIRGRPPRLPRPRPRPGILPRP
shrunken log2 fold change: 0.335

RRIRCRPPRLPRPRPRPPMQPRP
shrunken log2 fold change: 0.516

RRIRPRPPRLPRPRPRPTREPRP
shrunken log2 fold change: 0.177

RRIRSRPPRLPRPRPRPYYHPRP
shrunken log2 fold change: -0.44

RRIRNRPPRLPRPRPRPWYRPRP
shrunken log2 fold change: -0.117

RRIRPRPPRLPRPRPRPYVCPRP
shrunken log2 fold change: -0.73

RRIRPRPPRLPRPRPRPITDPRP
shrunken log2 fold change: -0.16

RRIRRRPPRLPRPRPRPELCPRP
shrunken log2 fold change: 0.101

RRIRYRPPRLPRPRPRPRYDPRP
shrunken log2 fold change: -0.21

RRIRERPPRLPRPRPRPYEAPRP
shrunken log2 fold change: -0.59

RRIRARPPRLPRPRPRPIDQPRP
shrunken log2 fold change: 0.444

RRIRYRPPRLPRPRPRPVGAPRP
shrunken log2 fold change: 0.252

RRIRKRPPRLPRPRPRPSYMPRP
shrunken log2 fold change: -0.0995

RRIRTRPPRLPRPRPRPDKWPRP
shrunken log2 fold change: 0.0238

RRIRARPPRLPRPRPRPITLPRP
shrunken log2 fold change: -0.13

RRIRQRPPRLPRPRPRPPCVPRP
shrunken log2 fold change: 0.214

RRIRIRPPRLPRPRPRPRPTPRP
shrunken log2 fold change: 0.152

RRIRRRPPRLPRPRPRPLAIPRP
shrunken log2 fold change: 0.0863

RRIRRRPPRLPRPRPRPLASPRP
shrunken log2 fold change: 0.382

RRIRCRPPRLPRPRPRPMMPPRP
shrunken log2 fold change: -0.11

RRIRFRPPRLPRPRPRPLPQPRP
shrunken log2 fold change: 1.15

RRIRRRPPRLPRPRPRPRWSPRP
shrunken log2 fold change: 0.498

RRIRDRPPRLPRPRPRPSPPPRP
shrunken log2 fold change: -0.15

RRIRFRPPRLPRPRPRPDSYPRP
shrunken log2 fold change: -0.236

RRIRERPPRLPRPRPRPEPWPRP
shrunken log2 fold change: 0.0721

RRIRARPPRLPRPRPRPAFWPRP
shrunken log2 fold change: 0.673

RRIRDRPPRLPRPRPRPCARPRP
shrunken log2 fold change: 0.219

RRIRRRPPRLPRPRPRPMMAPRP
shrunken log2 fold change: 0.142

RRIRRRPPRLPRPRPRPKCDPRP
shrunken log2 fold change: 0.0319

RRIRWRPPRLPRPRPRPQGGPRP
shrunken log2 fold change: -0.0626

RRIRDRPPRLPRPRPRPYFPPRP
shrunken log2 fold change: -0.944

RRIRLRPPRLPRPRPRPNMGPRP
shrunken log2 fold change: -0.25

RRIRGRPPRLPRPRPRPKVKPRP
shrunken log2 fold change: 0.547

RRIRHRPPRLPRPRPRPDYFPRP
shrunken log2 fold change: 0.0294

RRIRCRPPRLPRPRPRPITRPRP
shrunken log2 fold change: -0.429

RRIRLRPPRLPRPRPRPAPEPRP
shrunken log2 fold change: 0.109

RRIRRRPPRLPRPRPRPGTEPRP
shrunken log2 fold change: 0.443

RRIRTRPPRLPRPRPRPALFPRP
shrunken log2 fold change: 0.000901

RRIRCRPPRLPRPRPRPVEYPRP
shrunken log2 fold change: -0.0499

RRIRGRPPRLPRPRPRPKHAPRP
shrunken log2 fold change: 1.21

RRIRKRPPRLPRPRPRPVPKPRP
shrunken log2 fold change: 0.289

RRIRSRPPRLPRPRPRPIMNPRP
shrunken log2 fold change: -0.0954

RRIRYRPPRLPRPRPRPVWAPRP
shrunken log2 fold change: 0.205

RRIRARPPRLPRPRPRPNRRPRP
shrunken log2 fold change: 0.366

RRIRCRPPRLPRPRPRPTIRPRP
shrunken log2 fold change: -0.312

RRIRRRPPRLPRPRPRPQPHPRP
shrunken log2 fold change: 0.396

RRIRQRPPRLPRPRPRPVEVPRP
shrunken log2 fold change: -0.0922

RRIRSRPPRLPRPRPRPLDFPRP
shrunken log2 fold change: -0.223

RRIRFRPPRLPRPRPRPQRPPRP
shrunken log2 fold change: 0.203

RRIRQRPPRLPRPRPRPCKWPRP
shrunken log2 fold change: -0.0434

RRIRYRPPRLPRPRPRPHVSPRP
shrunken log2 fold change: 0.0324

RRIRDRPPRLPRPRPRPMTVPRP
shrunken log2 fold change: 0.047

RRIRPRPPRLPRPRPRPVFVPRP
shrunken log2 fold change: 0.0959

RRIRWRPPRLPRPRPRPMGHPRP
shrunken log2 fold change: -0.116

RRIRIRPPRLPRPRPRPIWTPRP
shrunken log2 fold change: -0.0318

RRIRPRPPRLPRPRPRPHDKPRP
shrunken log2 fold change: -0.271

RRIRRRPPRLPRPRPRPYCPPRP
shrunken log2 fold change: -0.187

RRIRHRPPRLPRPRPRPDKNPRP
shrunken log2 fold change: -0.496

RRIRQRPPRLPRPRPRPTTVPRP
shrunken log2 fold change: -0.114

RRIRLRPPRLPRPRPRPNQHPRP
shrunken log2 fold change: -0.222

RRIRTRPPRLPRPRPRPPLQPRP
shrunken log2 fold change: 0.369

RRIRGRPPRLPRPRPRPLMGPRP
shrunken log2 fold change: 0.373

RRIRHRPPRLPRPRPRPHHCPRP
shrunken log2 fold change: -0.152

RRIRVRPPRLPRPRPRPQRQPRP
shrunken log2 fold change: -0.207

RRIRMRPPRLPRPRPRPETMPRP
shrunken log2 fold change: 3.17

RRIRTRPPRLPRPRPRPMSMPRP
shrunken log2 fold change: -0.171

RRIRSRPPRLPRPRPRPMQEPRP
shrunken log2 fold change: 0.169

RRIRGRPPRLPRPRPRPWDAPRP
shrunken log2 fold change: 0.142

RRIRLRPPRLPRPRPRPEHQPRP
shrunken log2 fold change: -0.0896

RRIRTRPPRLPRPRPRPCMQPRP
shrunken log2 fold change: 1.86

RRIRLRPPRLPRPRPRPELWPRP
shrunken log2 fold change: 0.626

RRIRGRPPRLPRPRPRPPTVPRP
shrunken log2 fold change: 1.12

RRIRLRPPRLPRPRPRPEYQPRP
shrunken log2 fold change: -0.0351

RRIRCRPPRLPRPRPRPLYQPRP
shrunken log2 fold change: -0.543

RRIRPRPPRLPRPRPRPCVWPRP
shrunken log2 fold change: 0.0579

RRIRDRPPRLPRPRPRPTTPPRP
shrunken log2 fold change: 0.351

RRIRMRPPRLPRPRPRPLQLPRP
shrunken log2 fold change: 0.102

RRIRQRPPRLPRPRPRPCSPPRP
shrunken log2 fold change: 0.0218

RRIRIRPPRLPRPRPRPPTNPRP
shrunken log2 fold change: 0.0455

RRIRFRPPRLPRPRPRPPKRPRP
shrunken log2 fold change: 0.467

RRIRTRPPRLPRPRPRPRARPRP
shrunken log2 fold change: 0.63

RRIRGRPPRLPRPRPRPDHMPRP
shrunken log2 fold change: 0.0349

RRIRKRPPRLPRPRPRPFNCPRP
shrunken log2 fold change: 0.0153

RRIRFRPPRLPRPRPRPDCNPRP
shrunken log2 fold change: -0.179

RRIRVRPPRLPRPRPRPGIFPRP
shrunken log2 fold change: -0.0463

RRIRYRPPRLPRPRPRPVPVPRP
shrunken log2 fold change: -0.24

RRIRERPPRLPRPRPRPGLWPRP
shrunken log2 fold change: 0.168

RRIRWRPPRLPRPRPRPQQRPRP
shrunken log2 fold change: -0.102

RRIRARPPRLPRPRPRPGGRPRP
shrunken log2 fold change: 0.525

RRIRARPPRLPRPRPRPDQVPRP
shrunken log2 fold change: 0.359

RRIRRRPPRLPRPRPRPLTRPRP
shrunken log2 fold change: 0.234

RRIRKRPPRLPRPRPRPAYYPRP
shrunken log2 fold change: -0.0726

RRIRCRPPRLPRPRPRPKQKPRP
shrunken log2 fold change: 0.0322

RRIRLRPPRLPRPRPRPGLCPRP
shrunken log2 fold change: 0.234

RRIRRRPPRLPRPRPRPGKQPRP
shrunken log2 fold change: 0.254

RRIRKRPPRLPRPRPRPKPLPRP
shrunken log2 fold change: 0.687

RRIRARPPRLPRPRPRPTHPPRP
shrunken log2 fold change: 0.586

RRIRMRPPRLPRPRPRPNVWPRP
shrunken log2 fold change: 0.303

RRIRERPPRLPRPRPRPVCVPRP
shrunken log2 fold change: -0.0194
